Results on 2 molecules are retold here after article PMC4359615 (Journal of Structural Biology, 2015).

The chains are these.
B1: A135 subunit of RNA polymerase I (natural protein, S. cerevisiae)
chain: MSKVIKPPGQARTADFRTLERESRFINPPKDKSAFPLLQEAVQPHIGSFNALTEGPDGGLLNLGVKDIGEKVIFDGKPLNSEDEISNSGYLGNKLSVSVEQVSIAKPMSNDGVSSAVERKVYPSESRQRLTSYRGKLLLKLKWSVNNGEENLFEVRDCGGLPVMLQSNRCHLNKMSPYELVQHKEESDEIGGYFIVNGIEKLIRMLIVQRRNHPMAIIRPSFANRGASYSHYGIQIRSVRPDQTSQTNVLHYLNDGQVTFRFSWRKNEYLVPVVMILKALCHTSDREIFDGIIGNDVKDSFLTDRLELLLRGFKKRYPHLQNRTQVLQYLGDKFRVVFQASPDQSDLEVGQEVLDRIVLVHLGKDGSQDKFRMLLFMIRKLYSLVAGECSPDNPDATQHQEVLLGGFLYGMILKEKIDEYLQNIIAQVRMDINRGMAINFKDKRYMSRVLMRVNENIGSKMQYFLSTGNLVSQSGLDLQQVSGYTVVAEKINFYRFISHFRMVHRGSFFAQLKTTTVRKLLPESWGFLCPVHTPDGSPCGLLNHFAHKCRISTQQSDVSRIPSILYSLGVAPASHTFAAGPSLCCVQIDGKIIGWVSHEQGKIIADTLRYWKVEGKTPGLPIDLEIGYVPPSTRGQYPGLYLFGGHSRMLRPVRYLPLDKEDIVGPFEQVYMNIAVTPQEIQNNVHTHVEFTPTNILSILANLTPFSDFNQSPRNMYQCQMGKQTMGTPGVALCHRSDNKLYRLQTGQTPIVKANLYDDYGMDNFPNGFNAVVAVISYTGYDMDDAMIINKSADERGFGYGTMYKTEKVDLALNRNRGDPITQHFGFGNDEWPKEWLEKLDEDGLPYIGTYVEEGDPICAYFDDTLNKTKIKTYHSSEPAYIEEVNLIGDESNKFQELQTVSIKYRIRRTPQIGDKFSSRHGQKGVCSRKWPTIDMPFSETGIQPDIIINPHAFPSRMTIGMFVESLAGKAGALHGIAQDSTPWIFNEDDTPADYFGEQLAKAGYNYHGNEPMYSGATGEELRADIYVGVVYYQRLRHMVNDKFQVRSTGPVNSLTMQPVKGRKRHGGIRVGEMERDALIGHGTSFLLQDRLLNSSDYTQASVCRECGSILTTQQSVPRIGSISTVCCRRCSMRFEDAKKLLTKSEDGEKIFIDDSQIWEDGQGNKFVGGNETTTVAIPFVLKYLDSELSAMGIRLRYNVEPK
B2: A49 subunit of RNA polymerase I (natural protein, S. cerevisiae)
chain: MSVKRSVSEIEIESVQDQPSVAVGSFFKGFRAPSDTTFDLYKKKKSEKDEFVLHGENERLEYEGYTDSSSQASNQYVVGLFNPEKKSIQLYKAPVLVSKVVSKSSKNLRGPKIKSKSDTRPSALRNALGEAFGTKKAKKAIADLERNRIDSDKLTDSAIDIVDSVRTASKDLPTRAQLDEITSNDRPTPLANIDATDVEQIYPIESIIPKKELQFIRVSSILKEADKEKKLELFPYQNNSKYVAKKLDSLTQPSQMTKLQLLYYLSLLLGVYENRRVNNKTKLLERLNSPPEILVDGILSRFTVIKPGQFGRSKDRSYFIDPQNEDKILCYILAIIMHLDNFIVEITPLAHELNLKPSKVVSLFRVLGAIVKGATVAQAEAFGIPKSTAASYKIATMKVPFKLPEMTRRGRGPRR

The target of assay [1] is A190 subunit of RNA polymerase I (S. cerevisiae, UniProt P10964 1-1664). As to the kind of experiment: cross-linking.
For assay [2], the target named is B1. As to the kind of experiment: cross-linking.

A190 subunit of RNA polymerase I, sequence (P10964 whole entry): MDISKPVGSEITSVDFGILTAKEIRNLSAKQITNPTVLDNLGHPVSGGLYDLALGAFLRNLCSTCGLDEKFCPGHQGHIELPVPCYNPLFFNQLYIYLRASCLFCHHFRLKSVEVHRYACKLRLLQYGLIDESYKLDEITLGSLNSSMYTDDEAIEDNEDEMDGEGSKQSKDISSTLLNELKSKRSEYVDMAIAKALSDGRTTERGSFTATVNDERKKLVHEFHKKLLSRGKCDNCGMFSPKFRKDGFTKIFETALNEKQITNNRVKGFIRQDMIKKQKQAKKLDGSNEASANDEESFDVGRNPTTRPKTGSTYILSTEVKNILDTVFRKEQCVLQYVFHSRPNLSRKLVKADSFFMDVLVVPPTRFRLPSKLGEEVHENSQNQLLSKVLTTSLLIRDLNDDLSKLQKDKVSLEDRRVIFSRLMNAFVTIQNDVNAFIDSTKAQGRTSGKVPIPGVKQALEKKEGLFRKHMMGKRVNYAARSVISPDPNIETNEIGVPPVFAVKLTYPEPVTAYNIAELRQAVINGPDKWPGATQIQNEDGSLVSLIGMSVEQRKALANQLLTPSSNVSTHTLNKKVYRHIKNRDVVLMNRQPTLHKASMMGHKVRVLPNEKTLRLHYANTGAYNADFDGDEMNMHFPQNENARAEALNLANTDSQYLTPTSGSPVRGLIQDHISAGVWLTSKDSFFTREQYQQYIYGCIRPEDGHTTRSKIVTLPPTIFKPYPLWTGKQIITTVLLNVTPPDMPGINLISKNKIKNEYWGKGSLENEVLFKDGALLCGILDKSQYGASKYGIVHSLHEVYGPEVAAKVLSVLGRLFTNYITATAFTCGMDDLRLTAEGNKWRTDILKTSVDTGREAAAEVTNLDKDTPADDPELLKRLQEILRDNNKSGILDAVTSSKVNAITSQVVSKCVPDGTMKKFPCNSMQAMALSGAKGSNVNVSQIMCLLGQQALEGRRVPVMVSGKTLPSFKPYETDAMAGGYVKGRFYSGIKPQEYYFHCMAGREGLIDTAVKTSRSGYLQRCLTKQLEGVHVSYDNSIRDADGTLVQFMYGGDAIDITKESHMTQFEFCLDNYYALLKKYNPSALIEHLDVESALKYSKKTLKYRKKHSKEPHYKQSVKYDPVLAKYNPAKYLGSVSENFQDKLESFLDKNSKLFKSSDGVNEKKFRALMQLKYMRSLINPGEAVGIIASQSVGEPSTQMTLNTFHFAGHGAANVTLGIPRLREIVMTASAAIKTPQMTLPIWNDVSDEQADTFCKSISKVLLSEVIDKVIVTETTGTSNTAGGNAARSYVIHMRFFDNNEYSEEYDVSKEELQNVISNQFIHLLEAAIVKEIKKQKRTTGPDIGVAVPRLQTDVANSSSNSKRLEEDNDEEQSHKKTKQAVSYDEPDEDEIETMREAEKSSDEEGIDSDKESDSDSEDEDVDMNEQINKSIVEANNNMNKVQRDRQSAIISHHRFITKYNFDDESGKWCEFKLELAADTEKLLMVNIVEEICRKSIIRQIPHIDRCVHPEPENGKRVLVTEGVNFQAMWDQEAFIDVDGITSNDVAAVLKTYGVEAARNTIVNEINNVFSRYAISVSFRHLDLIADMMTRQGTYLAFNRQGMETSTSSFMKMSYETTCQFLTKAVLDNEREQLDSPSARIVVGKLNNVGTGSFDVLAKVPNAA

As for B1, the binding result in assay [1] is reported as “binds”.
Take B2: the binding result in assay [1] and in assay [2] was “binds” throughout.
